Data on one substance can be found in publication PMC4056191.

The assay deals with H3.3 G90M (pCDH, transfected) (human) (UniProt P84243). The assay can be described thus: co-IP.

DAXX found with transfected H3 in 293T cells, sequence (Q9UER7 whole entry): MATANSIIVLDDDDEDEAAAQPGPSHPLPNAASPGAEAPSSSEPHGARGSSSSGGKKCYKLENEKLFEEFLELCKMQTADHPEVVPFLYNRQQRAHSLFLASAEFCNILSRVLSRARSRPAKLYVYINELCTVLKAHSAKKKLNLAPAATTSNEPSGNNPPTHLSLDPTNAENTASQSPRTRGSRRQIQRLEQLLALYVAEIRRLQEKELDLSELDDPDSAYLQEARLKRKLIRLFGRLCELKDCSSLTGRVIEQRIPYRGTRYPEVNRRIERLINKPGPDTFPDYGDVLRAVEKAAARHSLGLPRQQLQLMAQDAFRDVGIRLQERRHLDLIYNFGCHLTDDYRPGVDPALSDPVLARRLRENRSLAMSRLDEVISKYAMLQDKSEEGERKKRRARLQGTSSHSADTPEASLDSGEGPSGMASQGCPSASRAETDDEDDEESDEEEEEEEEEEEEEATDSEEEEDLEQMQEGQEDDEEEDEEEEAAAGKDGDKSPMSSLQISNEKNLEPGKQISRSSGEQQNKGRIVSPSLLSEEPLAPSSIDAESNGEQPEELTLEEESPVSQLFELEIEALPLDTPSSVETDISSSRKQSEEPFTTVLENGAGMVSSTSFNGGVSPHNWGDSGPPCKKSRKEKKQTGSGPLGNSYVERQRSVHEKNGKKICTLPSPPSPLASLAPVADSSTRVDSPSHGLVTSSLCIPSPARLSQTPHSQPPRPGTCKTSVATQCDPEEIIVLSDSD

On to “DAXX found with transfected H3 in 293T cells (from UniProt Q9UER7 1-740) (natural protein)”, for which the reduction of DAXX binding against wild-type H3.3 came out at 50%.
